Consider 10 molecules from patent publication US20210261685A1 (Alector, published 2021).

Where a chain is given by its changes, count along the chain named.

T1: human MerTK endogenously expressed on cells (SK-MEL-5 cells; human macrophages) (human, UniProt Q12866 21-999)
T1 construct: also called MerTK on SK-MEL-5
T1 sequence: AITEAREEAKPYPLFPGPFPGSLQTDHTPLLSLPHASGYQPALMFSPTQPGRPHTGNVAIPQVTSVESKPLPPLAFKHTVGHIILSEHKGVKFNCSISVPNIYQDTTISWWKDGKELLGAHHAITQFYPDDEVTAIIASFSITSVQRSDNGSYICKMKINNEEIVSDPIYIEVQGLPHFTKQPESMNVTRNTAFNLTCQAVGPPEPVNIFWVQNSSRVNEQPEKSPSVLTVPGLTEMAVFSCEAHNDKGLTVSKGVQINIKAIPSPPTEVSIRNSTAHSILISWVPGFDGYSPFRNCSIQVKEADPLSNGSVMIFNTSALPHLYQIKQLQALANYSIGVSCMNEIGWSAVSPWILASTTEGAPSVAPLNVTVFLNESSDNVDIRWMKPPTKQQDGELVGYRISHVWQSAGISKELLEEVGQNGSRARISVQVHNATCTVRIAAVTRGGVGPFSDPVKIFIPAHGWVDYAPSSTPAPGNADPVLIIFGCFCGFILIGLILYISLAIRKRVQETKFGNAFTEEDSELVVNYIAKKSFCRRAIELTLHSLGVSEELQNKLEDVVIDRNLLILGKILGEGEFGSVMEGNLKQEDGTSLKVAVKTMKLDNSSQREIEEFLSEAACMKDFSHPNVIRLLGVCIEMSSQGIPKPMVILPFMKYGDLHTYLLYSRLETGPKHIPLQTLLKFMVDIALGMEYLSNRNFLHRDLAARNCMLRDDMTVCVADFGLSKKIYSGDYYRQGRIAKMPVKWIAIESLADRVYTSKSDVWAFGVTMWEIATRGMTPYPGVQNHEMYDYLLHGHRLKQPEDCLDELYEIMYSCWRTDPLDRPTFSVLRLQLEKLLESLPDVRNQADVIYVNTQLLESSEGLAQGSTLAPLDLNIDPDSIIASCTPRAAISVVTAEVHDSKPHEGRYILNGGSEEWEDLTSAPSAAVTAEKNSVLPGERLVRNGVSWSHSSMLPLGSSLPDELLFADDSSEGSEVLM

T2: Recombinant human MerTK human Fc Chimera protein (R&D systems, Cat #391-MR-100) (human, UniProt Q12866 26-499, limits assumed)
T2 construct: Bought; also called recombinant human MerTK protein; MerTK-Fc
T2 sequence: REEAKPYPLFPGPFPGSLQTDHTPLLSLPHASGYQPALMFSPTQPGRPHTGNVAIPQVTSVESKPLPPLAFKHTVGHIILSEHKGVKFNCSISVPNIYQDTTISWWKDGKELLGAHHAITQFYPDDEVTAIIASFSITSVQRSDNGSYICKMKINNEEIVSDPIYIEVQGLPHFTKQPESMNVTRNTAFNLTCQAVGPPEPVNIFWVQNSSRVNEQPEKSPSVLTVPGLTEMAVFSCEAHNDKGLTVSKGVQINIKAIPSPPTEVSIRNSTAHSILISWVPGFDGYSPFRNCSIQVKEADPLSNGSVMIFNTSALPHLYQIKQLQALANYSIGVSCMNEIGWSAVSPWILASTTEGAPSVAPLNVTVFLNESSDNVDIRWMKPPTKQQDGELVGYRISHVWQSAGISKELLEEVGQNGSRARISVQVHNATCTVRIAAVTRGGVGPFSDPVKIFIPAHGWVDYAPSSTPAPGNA

B1: MTK-30 (antibody, human IgG1, V domains shown)
VH: QVQLQQPGTELVRPGASVKLSCKASGYTFTSYWMHWVKQRPGQGLEWIGNLNPNNGGTYYNEKFKSKATLTVDKSSSTAYMQLSSLTSEDSAVYYCARQILLYFDYWGQGTTLTVSS
VL: DVLMTQTPLSLPVSLGDQASISCRSSQSIVHSNGDTYLEWYLQKPGQSPKLLIYKVSNRFSGVPDRFSGSGSGTDFTLKISRVEAEDLGVYYCFQGSHVPWTFGGGTKLEIK
B2: MTK-26 (antibody, human IgG1, V domains shown)
VH: AVQFQESGPGLVKLSQSLSLTCSVTGYSITSGYYWDWIRQFPGNKLEWMGYISYDGSNNYNPSLKNRISITRDTSKNQFFLKLNSVTTEDTATYYCAREGGYYRSMDYWGQGTSVTVSS
VL: QIVLTQSPAIMSASPGEKVTIACSASSSVSFMHWFQQKPGTSPRLWIYSTSNLASGVPARFSGSGSGTSYSLTISRMEAEDAATYYCQQRSSYPFTFGSGTKLEIK
B3: MTK-33 (antibody, human IgG1, V domains shown)
VH: QVQLQQPGPELVRPGTSVKLSCKASGYTFTSYWMHWIKQRPGQGLEWIGVIDPSDNYINYNQKFKGKATLTVDTSSSTAYLQLSSLTSEDSAVYYCAREAGTRGYFDYWGQGTTLTVSS
VL: SIVMTQTPKFLLVSAGDRVIITCKASQSVSNTVAWYQQKPGQSPKLLIYYASNRYTGVPDRFTGSGYGTDFTFTISTVQAEDLAVYFCQQDYRSPFTFGSGTQLEMK
B4: MTK-35 (antibody, human IgG1, V domains shown)
VH: QVLLQQSGPELVKPGASVQLSCKASDYTFTSYDIHWVKQRPGQGLEWIGWIYPRDGYTKYNEIFKGKATLTVDTSSTTAYMELHSLTSEDSAVYFCARAYYTNWYYFDYWGQGTTLTVSS
VL: EIVLTQSPTTMAASPGEKITITCRASSSISSHYLHWYQQKPGFSPKLLIYRTSNLASGVPARFSGSGSGTSYSLTIGTMEAEDVATYYCQQGSTIPLTFGAGTKLVLK
B5: MTK-27 (antibody, human IgG1, V domains shown)
VH: EVQLQQSGTELVRPGASVKLSCTASGFNIKDDYMHWVQQRPEQGLEWIGWIDPENGNTEYASKFQGKATITADASSNTAYLQLSSLTSEDTAVYYCSTLFSNYFDYWGQGTTLTVSS
VL: DIVMTQSQKFMSTSVGDRVSITCKASQNVRTSVAWYQQKPGQSPKALIYLASNRHTGVPDRFTGSGSGTDFTLTISNVRSEDLADYFCLQHWNYPYTFGGGTKLEIK
B6: MTK-19 (antibody, human IgG1, V domains shown)
VH: EVQLQQSGPELVKPGASVKISCKTSGYTFTEYTMHWVKQSHGKSLEWLGGFNPNNVITSYNQRFQGRATLTVDKSSSTAYMELRSLTSDDSAVYYCTRGDLLWSLLLPGNYFDYWGQGTTLTVSS
VL: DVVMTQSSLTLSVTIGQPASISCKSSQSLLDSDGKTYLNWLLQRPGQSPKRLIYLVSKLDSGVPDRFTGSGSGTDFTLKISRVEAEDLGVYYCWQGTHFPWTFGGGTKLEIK
B7: MTK-01 (antibody, human IgG1, V domains shown)
VH: QIQLVQSGPELKKPGETVKISCKASGYTFTNYGMNWVKQAPGKGLKCMGWINTYTGEPTYADDFKGRFAFSLETSATTAYLQINNLKNEDTATYFCARRDRYTWFAYWGQGTLVTVSA
VL: QIVLSQSPAILSASPGEKVTMTCRASSSVSYMHWYQQKPGSSPKPWIYATSNLASGVPARFSGSGSGTSYSLTISRVEAEDAATYYCQQWSSNPPTFGGGTKLEIK
B8: MTK-29 (antibody, human IgG1, V domains shown)
VH: QIQLVQSGPELKKPGETVKISCKSSGFTFTTYGMSWVKQAPGKGLKWMGWINTYSGVPTYTDDFKGRFAFSLETSASTASLQINNLKNEDTATYFCARYTNYGYFDYWGQGTTLTVSS
VL: B7 VL with S26T, S30G, D81H, S91G, P95F, G99S
B9: MTK-36 (antibody, human IgG1, V domains shown)
VH: QVTLKESGPGILQPSQTLSLTCSFSGFSLSTFGMGVGWIRQPSGKGLEWLAHIWWYDDKYYEPALKSRLTISKDSSKNQVFLKIANVDTADTATYYCARIYYGTSYRYFDVWGTGTTVTVSS
VL: B7 VL with S14F, S26T, S30R, S51Y, A54T, Q88H, P95Y
B10: MTK-05 (antibody, human IgG1, V domains shown)
VH: QVQLQQSGAELVQPGTSVRLSCKTSGYTFTSYWIQWVKQRPGQGLGWIGEIFPGTGTTYYNEKFKGKATLTIDTSSSTAYMQLSSLTSEDSAVYFCARDGAYFDVWGAGTTVTVSS
VL: DIQMTQSPASLSASVGETVTFTCRASENIFSYLAWYQQKQGKSPQLLVYNAKTLAEGVPSRFSGSGSGTHFSLKINSLQPEDFGSYYCLHHYGTPLTFGAGTKLELK

The first assay deals with T1, human MerTK endogenously expressed on …. As to the kind of experiment: flow cytometry on SK-MEL-5 cells, Prism fit. As for the experimental part:
To determine whether recombinant anti-human MerTK antibodies of the present disclosure bind to human MerTK endogenously expressed on SK-MEL-5 cells and to CHO cells overexpressing mouse MerTK (CHO-muMerTK OE cells), the following experiments were performed. SK-MEL-5 cells and CHO-muMerTK OE cells were plated at 40,000 cells/well. Anti-MerTK antibodies were titrated to a final concentration range of between 66.6 nM to 4 pM and then added to the cells. After 30 min on ice, cells were washed and then stained with APC-conjugated mouse anti-human Kappa antibody (Southern Biotech Cat #9230-11, Birmingham, Ala.) and a viability die (Life Technologies) in the presence of Fc block solution on ice for 30 minutes, and then washed twice with cold FACS buffer (2% FBS in PBS). Cells were fixed with 4% paraformaldehyde in PBS. Stained cells were acquired on a BD FACS Canto II cytometer and the mean fluorescence intensity (MFI) was calculated with FlowJo software and K value was calculated with Prism software. […] A lower Kd value reflects higher binding of antibody to cells.
For orientation: A flow cytometer gives signals particle by particle.
In the case of B1, binding was put at a Kd of 0.47 nM. In other words, the sub-nanomolar range.

Regarding B2, binding was characterised by a dissociation constant (Kd) of 1.38 nM.

In the case of B3, the Kd came out at 0.93 nM. The Kd values of the last two molecules are within 1.5-fold of each other.

In the case of B4, the Kd worked out at 1.29 nM.

The molecule B5 had a Kd of 2.55 nM.

In turn, B6 had a Kd of 3.07 nM. The Kd values of the last two molecules are within 1.5-fold of each other.

For B7, binding was put at a Kd of 0.049 nM.

The molecule B8 gave a Kd of 0.14 nM.

B9 had a Kd of 1.42 nM.

The next assay concerns the target T2, Recombinant human MerTK human Fc …. As to the kind of experiment: competition ELISA, His-Gas6 on captured MerTK-Fc. How it is done:
Rabbit anti-human IgG polyclonal antibody (Jackson ImmunoResearch, Cat #309-005-008) was captured to a high-protein binding plate at 2 μg/ml 4° C. overnight. After washing with 0.05% Tween20 in PBS three times, 5% BSA in PBS was added for 1 hour. Recombinant human MerTK human Fc Chimera protein (R&D systems, Cat #391-MR-100) was added at 2 μg/ml for 1 hour and the plates were then washed. Anti-MerTK antibodies were titrated to final concentration range of between 66.6 nM to 4 pM and then 40 μl of serially diluted antibody and 40 μl of His tag-conjugated recombinant Gas6 protein (R&D systems, Cat #885-GSB-050) at 3 μg/ml or His tag-conjugated recombinant ProS protein (R&D systems, Cat #9489-PS-100) at 20 μg/ml. After a further incubation for 1 hour, plates were washed and incubated for 1 hour with HRP-conjugated anti-6×His tag antibody (Abcam, Cat #ab1187). Plates were then washed and an HRP substrate (TMB) was used to develop the plates. After sufficient color change was observed, the reaction was stopped by adding 50 μl 2N H₂SO₄ and the OD was measured using a spectrophotometer (BioTek).
From these experiments, IC50 values [nM] were determined using OD450 values obtained from the dose-response curves analyzed with Prism software. Table 14 and Table 15 show IC50 values determined for anti-MerTK antibody blocking of Gas6 ligand binding and ProS ligand binding to MerTK. […] Dashes indicate lack of significant blocking; “n.a.” indicates data not available.
(In general: An ELISA detects its analyte on a solid surface through an enzyme-linked reagent.)
On to B1, for which the IC50 amounted to 1.26 nM.

On to B2, for which the IC50 is 2.93 nM.

B4: the IC50 amounted to 0.31 nM.

As to B5, the IC50 amounted to 1.42 nM.

As for B9, the IC50 turned out to be 0.29 nM.

The next assay shares this target. As to the kind of experiment: competition ELISA, His-ProS on captured MerTK-Fc. In outline:
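Blocking IC50 (nM) comes from OD450 curves after TMB development of bound His-tagged ligand detected by HRP-anti-His. Ligand (His-Gas6 at 3 μg/ml, or His-ProS at 20 μg/ml) and titrated antibody (66.6 nM to 4 pM final) were incubated 1 h on MerTK-Fc (2 μg/ml) held by an anti-human IgG capture antibody.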
Take B1: the IC50 came to 1.57 nM.

Turning to B10, the IC50 was 6.51 nM.

Regarding B2, the half-maximal inhibitory concentration (IC50) turned out to be 1.2 nM.

For B3, the IC50 came to 0.601 nM.

For the molecule B4, the half-inhibitory concentration (IC50) is 0.924 nM.

Regarding B5, the IC50 came out at 2.54 nM.

With B6, the IC50 was 11.3 nM.

For the molecule B7, the IC50 was 2.85 nM.

Turning to B8, the IC50 turned out to be 2.66 nM.

On to B9, for which the IC50 came out at 1.4 nM.

A further assay has as its target T1, human MerTK endogenously expressed on …. As to the kind of experiment: cell-based or functional assay.
Consider B10, for which the “Gas6-mediated pAKT activity, average IC50, human M2c macrophages” value (shortened to “Gas6-mediated pAKT activity”) is 0.246 nM.

On to B3, for which the “Gas6-mediated pAKT activity” value stood at 4.28 nM.

With B6, the “Gas6-mediated pAKT activity” value came out at 0.902 nM.

For B7, the “Gas6-mediated pAKT activity” value stood at 1.28 nM.

On to B8, for which the “Gas6-mediated pAKT activity” value amounted to 5.37 nM.

The Kd is the free concentration of one partner at which half of the binding sites on the other are occupied at equilibrium, for simple one-to-one binding. Higher therefore signals weaker binding. Usually IC50 stands for the concentration needed to halve the response being measured.
